Measured values: US20190382481A1 (Janssen / Centocor, published 2019)
Substitutions are numbered along the chain they refer to.

What was measured:
Assay in all cases: cell-based or functional assay
human CD33 [1] = target: T1, human CD33 (human, UniProt P20138 18-364)
human CD33 [2] = target: T1, human CD33; remark: listed apart in the source
human CD33 [3] = target: T1, human CD33; remark: listed apart in the source
cyno CD33 = cyno CD33 (cynomolgus monkey)
human CD33 [4] = target: T1, human CD33; remark: listed apart in the source
human CD33 [5] = target: T1, human CD33; remark: listed apart in the source
human CD33 [6] = target: T1, human CD33; remark: listed apart in the source

Sequence of cyno CD33 (cynomolgus monkey) (chain, as listed by the source limits assumed): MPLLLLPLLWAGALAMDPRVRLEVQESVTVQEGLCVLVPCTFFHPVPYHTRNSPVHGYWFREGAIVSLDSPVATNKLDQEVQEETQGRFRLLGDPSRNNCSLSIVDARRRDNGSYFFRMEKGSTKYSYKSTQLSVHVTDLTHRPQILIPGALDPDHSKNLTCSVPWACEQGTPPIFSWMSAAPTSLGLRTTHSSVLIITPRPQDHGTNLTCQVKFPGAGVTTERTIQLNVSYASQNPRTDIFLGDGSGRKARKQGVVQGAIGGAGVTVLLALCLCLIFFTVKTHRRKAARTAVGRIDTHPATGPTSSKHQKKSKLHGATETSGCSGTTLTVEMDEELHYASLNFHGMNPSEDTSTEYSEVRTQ
T1 sequence (P20138 18-364 limits assumed): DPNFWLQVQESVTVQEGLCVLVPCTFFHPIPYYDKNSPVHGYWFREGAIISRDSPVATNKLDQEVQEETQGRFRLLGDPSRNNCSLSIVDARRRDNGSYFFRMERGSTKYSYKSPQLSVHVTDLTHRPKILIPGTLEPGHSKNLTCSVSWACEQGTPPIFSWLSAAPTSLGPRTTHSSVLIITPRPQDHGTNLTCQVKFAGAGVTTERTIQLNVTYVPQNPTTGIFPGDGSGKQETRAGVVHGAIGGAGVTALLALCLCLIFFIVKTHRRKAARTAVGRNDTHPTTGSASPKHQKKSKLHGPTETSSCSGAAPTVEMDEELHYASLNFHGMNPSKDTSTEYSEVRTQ

B1: C3CB12 (bispecific antibody, human IgG4 S228P, lambda, F234A L235A)
heavy 1: not shown
light 1: SYELTQPPSVSVSPGQTASITCSGNKLGAKFASWYQQKPGQSPVLVIYQDNKRPSGIPERFSGSNSGNTATLTISGTQAVDEADYYCQAWDSSTVVFGGGTKLTVLGQPKAAPSVTLFPPSSEELQANKATLVCLISDFYPGAVTVAWKADSSPVKAGVETTTPSKQSNNKYAASSYLSLTPEQWKSHRSYSCQVTHEGSTVEKTVAPTECS
heavy 2: EVQLVESGGGLVQPGGSLRLSCAASGFTFNTYAMNWVRQAPGKGLEWVARIRSKYNNYATYYAASVKGRFTISRDDSKNSLYLQMNSLKTEDTAVYYCARHGNFGNSYVSWFAYWGQGTLVTVSSASTKGPSVFPLAPCSRSTSESTAALGCLVKDYFPEPVTVSWNSGALTSGVHTFPAVLQSSGLYSLSSVVTVPSSSLGTKTYTCNVDHKPSNTKVDKRVESKYGPPCPPCPAPEAAGGPSVFLFPPKPKDTLMISRTPEVTCVVVDVSQEDPEVQFNWYVDGVEVHNAKTKPREEQFNSTYRVVSVLTVLHQDWLNGKEYKCKVSNKGLPSSIEKTISKAKGQPREPQVYTLPPSQEEMTKNQVSLTCLVKGFYPSDIAVEWESNGQPENNYKTTPPVLDSDGSFLLYSKLTVDKSRWQEGNVFSCSVMHEALHNHYTQKSLSLSLGK
light 2: QTVVTQEPSLTVSPGGTVTLTCRSSTGAVTTSNYANWVQQKPGQAPRGLIGGTNKRAPGTPARFSGSLLGGKAALTLSGVQPEDEAEYYCALWYSNLWVFGGGTKLTVLGQPKAAPSVTLFPPSSEELQANKATLVCLISDFYPGAVTVAWKADSSPVKAGVETTTPSKQSNNKYAASSYLSLTPEQWKSHRSYSCQVTHEGSTVEKTVAPTECS
- Cytotoxicity EC50 (nM), T-cell mediated cytotoxicity of MOLM-13 (human CD33 [1]): 0.268 nM
- Primary AML Cell Killing EC50 (nM), ex vivo AML patient whole blood (human CD33 [2]): 2.63 nM

B2: C3CB88 (bispecific antibody, human IgG4 S228P, kappa, lambda, F234A L235A)
heavy 1: not shown
light 1: not shown
heavy 2: B1 heavy 2
light 2: B1 light 2
- Cytotoxicity EC50 (nM), T-cell mediated cytotoxicity of MOLM-13 (human CD33 [1]): 0.11 nM
- Primary AML Cell Killing EC50 (nM), ex vivo AML patient whole blood (human CD33 [2]): 0.672 nM
- CD33^+ CD14^+ Killing EC50 (nM), ex vivo human whole blood (human CD33 [3]): 0.506 nM
- MOLM13 Killing EC50 (nM), ex vivo human whole blood (human CD33 [3]): 0.671 nM
- CD33^+ CD14^+ Killing EC50 (nM), ex vivo cynomolgus whole blood (cyno CD33): 0.89 nM
- T cell activation EC50 (nM), ex vivo cynomolgus whole blood (cyno CD33): 0.02 nM

B3: C33B782 (antibody, human IgG4 S228P, lambda, F234A L235A)
heavy: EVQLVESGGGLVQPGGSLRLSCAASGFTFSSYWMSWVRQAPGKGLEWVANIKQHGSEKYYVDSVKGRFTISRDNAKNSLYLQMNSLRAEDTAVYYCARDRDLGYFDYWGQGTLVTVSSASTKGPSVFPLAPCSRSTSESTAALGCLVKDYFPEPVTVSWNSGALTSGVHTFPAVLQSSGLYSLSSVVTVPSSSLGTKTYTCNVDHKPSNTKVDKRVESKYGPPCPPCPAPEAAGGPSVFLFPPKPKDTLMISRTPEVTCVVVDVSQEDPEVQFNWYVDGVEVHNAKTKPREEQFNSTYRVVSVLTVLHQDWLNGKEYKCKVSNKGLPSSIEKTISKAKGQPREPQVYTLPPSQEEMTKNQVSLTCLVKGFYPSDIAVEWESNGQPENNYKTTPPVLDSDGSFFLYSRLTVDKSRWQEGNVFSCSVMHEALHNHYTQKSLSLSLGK
light: B1 light 1
- EC50 (nM), CD33 internalization assay (Protein A-MMAF cell viability, MOLM13) (human CD33 [4]): 0.88 nM

B4: C33B912.CLF (antibody, human IgG1, kappa, V domains shown)
VH: EVQLVESGGGLVQPGRSLRLSCAASGFTFDDYAMHWVRQAPGKGLEWVSGIGWSGGSIVYADSVKGRFKISRDNAKNSLYLQMNSLRAEDTALYYCAKDSPYGDFFDYWGQGTLVTVSS
VL: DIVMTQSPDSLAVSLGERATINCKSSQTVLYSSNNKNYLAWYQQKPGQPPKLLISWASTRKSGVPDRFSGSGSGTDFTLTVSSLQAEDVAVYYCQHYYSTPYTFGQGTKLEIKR
modifications: IgG1 low fucose Fc glycan
- EC50 ADCC (nM), MOLM-13 target cells, human NK effector cells (human CD33 [5]): 0.292 nM
- EC50 ADCC (nM), MV4-11 target cells, human NK effector cells (human CD33 [5]): 2.01 nM

B5: C33B48.CLF (antibody, human IgG1, lambda)
heavy: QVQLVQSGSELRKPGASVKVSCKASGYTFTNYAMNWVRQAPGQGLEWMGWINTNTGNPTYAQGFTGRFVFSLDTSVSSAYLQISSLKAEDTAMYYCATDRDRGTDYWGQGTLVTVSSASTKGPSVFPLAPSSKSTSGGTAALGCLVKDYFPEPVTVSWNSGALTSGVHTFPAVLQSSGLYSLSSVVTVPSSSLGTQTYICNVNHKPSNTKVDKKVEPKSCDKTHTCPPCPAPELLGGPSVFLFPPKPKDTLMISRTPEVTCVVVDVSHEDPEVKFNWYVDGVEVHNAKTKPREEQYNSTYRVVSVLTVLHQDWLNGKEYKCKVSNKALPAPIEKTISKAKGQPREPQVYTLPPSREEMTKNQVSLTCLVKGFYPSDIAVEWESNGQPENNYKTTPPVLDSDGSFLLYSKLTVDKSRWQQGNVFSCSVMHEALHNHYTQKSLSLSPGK
light: QSALTQPASVSGSPGQSITISCTGTSSDVGDYNYVSWYQQHPGKVPKLMIYDVSNRPSGVSNRFSGSMSGNTASLTISGLQAEDEADYYCSSYSSSSALEVFGGGTKLTVLGQPKAAPSVTLFPPSSEELQANKATLVCLISDFYPGAVTVAWKADSSPVKAGVETTTPSKQSNNKYAASSYLSLTPEQWKSHRSYSCQVTHEGSTVEKTVAPTECS
modifications: IgG1 low fucose Fc glycan
- EC50 ADCC (nM), MOLM-13 target cells, human NK effector cells (human CD33 [5]): 0.023 nM
- EC50 ADCC (nM), MV4-11 target cells, human NK effector cells (human CD33 [5]): 0.113 nM

B6: C3CB97 (bispecific antibody, human IgG4 S228P, lambda, F234A L235A)
heavy 1: not shown
light 1: B5 light
heavy 2: QVQLQQSGPRLVRPSQTLSLTCAISGDSVFNNNAAWSWIRQSPSRGLEWLGRTYYRSKWLYDYAVSVKSRITVNPDTSRNQFTLQLNSVTPEDTALYYCARGYSSSFDYWGQGTLVTVSSASTKGPSVFPLAPCSRSTSESTAALGCLVKDYFPEPVTVSWNSGALTSGVHTFPAVLQSSGLYSLSSVVTVPSSSLGTKTYTCNVDHKPSNTKVDKRVESKYGPPCPPCPAPEAAGGPSVFLFPPKPKDTLMISRTPEVTCVVVDVSQEDPEVQFNWYVDGVEVHNAKTKPREEQFNSTYRVVSVLTVLHQDWLNGKEYKCKVSNKGLPSSIEKTISKAKGQPREPQVYTLPPSQEEMTKNQVSLTCLVKGFYPSDIAVEWESNGQPENNYKTTPPVLDSDGSFLLYSKLTVDKSRWQEGNVFSCSVMHEALHNHYTQKSLSLSLGK
light 2: QSALTQPASVSGSPGQSITISCTGTSSNIGTYKFVSWYQQHPDKAPKVLLYEVSKRPSGVSSRFSGSKSGNTASLTISGLQAEDQADYHCVSYAGSGTLLFGGGTKLTVLGQPKAAPSVTLFPPSSEELQANKATLVCLISDFYPGAVTVAWKADSSPVKAGVETTTPSKQSNNKYAASSYLSLTPEQWKSHRSYSCQVTHEGSTVEKTVAPTECS
- Primary AML Cell Killing EC50 (nM), ex vivo AML patient whole blood (human CD33 [2]): ~0.232 nM

B7: C33B836 (antibody, human IgG4 S228P, lambda, F234A L235A)
heavy: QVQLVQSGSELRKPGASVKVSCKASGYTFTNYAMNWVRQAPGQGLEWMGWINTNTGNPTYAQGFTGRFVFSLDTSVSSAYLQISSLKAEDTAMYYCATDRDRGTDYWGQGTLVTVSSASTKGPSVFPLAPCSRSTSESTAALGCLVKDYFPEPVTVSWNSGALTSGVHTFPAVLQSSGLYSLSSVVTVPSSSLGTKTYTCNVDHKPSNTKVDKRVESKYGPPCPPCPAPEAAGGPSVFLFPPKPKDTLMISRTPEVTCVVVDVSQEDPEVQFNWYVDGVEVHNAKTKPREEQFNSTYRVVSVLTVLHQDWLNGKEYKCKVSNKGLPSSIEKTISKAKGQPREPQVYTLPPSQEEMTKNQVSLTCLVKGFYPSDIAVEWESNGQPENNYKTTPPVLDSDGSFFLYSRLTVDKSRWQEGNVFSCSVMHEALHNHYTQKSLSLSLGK
light: B5 light
- EC50 (nM), CD33 internalization assay (Protein A-MMAF cell viability, MOLM13) (human CD33 [4]): 0.04 nM

B8: C3CB7 (bispecific antibody, human IgG4 S228P, lambda, F234A L235A)
heavy 1: not shown
light 1: B5 light
heavy 2: B1 heavy 2
light 2: B1 light 2
- Cytotoxicity EC50 (nM), T-cell mediated cytotoxicity of MOLM-13 (human CD33 [1]): 0.0213 nM
- Primary AML Cell Killing EC50 (nM), ex vivo AML patient whole blood (human CD33 [2]): 0.332 nM

B9: C3CB189 (bispecific antibody, human IgG4 S228P, kappa, lambda, F234A L235A)
heavy 1: not shown
light 1: not shown
heavy 2: B6 heavy 2
light 2: B6 light 2
- Primary AML Cell Killing EC50 (nM), ex vivo AML patient whole blood (human CD33 [2]): 0.578 nM
- CD33^+ CD14^+ Killing EC50 (nM), ex vivo human whole blood (human CD33 [3]): 1.16 nM
- MOLM13 Killing EC50 (nM), ex vivo human whole blood (human CD33 [3]): 0.168 nM
- CD33^+ CD14^+ Killing EC50 (nM), ex vivo cynomolgus whole blood (cyno CD33): 3.6 nM
- T cell activation EC50 (nM), ex vivo cynomolgus whole blood (cyno CD33): 0.02 nM
- IFN-gamma release, Median EC50 (human CD33 [6]): 0.16 nM
- IL-1beta release, Median EC50 (human CD33 [6]): 0.045 nM
- IL-2 release, Median EC50 (human CD33 [6]): 0.346 nM
- IL-4 release, Median EC50 (human CD33 [6]): 0.078 nM
- IL-8 release, Median EC50 (human CD33 [6]): 0.042 nM
- IL-10 release, Median EC50 (human CD33 [6]): 0.123 nM
- IL-13 release, Median EC50 (human CD33 [6]): 0.034 nM
- TNF-alpha release, Median EC50 (human CD33 [6]): 0.208 nM

B10: C3CB102 (bispecific antibody, human IgG4 S228P, lambda, F234A L235A)
heavy 1: not shown
light 1: B1 light 1
heavy 2: B6 heavy 2
light 2: B6 light 2
- Primary AML Cell Killing EC50 (nM), ex vivo AML patient whole blood (human CD33 [2]): 4.97 nM

B11: C3CB103 (bispecific antibody, human IgG4 S228P, lambda, F234A L235A)
heavy 1: not shown
light 1: B1 light 1 with N25D, A29D, F31Y, S33C, N51G, S66F, T69K, V80M, S92R, S93N
heavy 2: B6 heavy 2
light 2: B6 light 2
- Primary AML Cell Killing EC50 (nM), ex vivo AML patient whole blood (human CD33 [2]): 4.19 nM

B12: C33B937 (antibody, human IgG4 S228P, lambda, F234A L235A, V domains shown)
VH: QVQLVESGGGVVQPGRSLRLSCVASGFTFSSYGMHWVRQAPGKGLEWVAVISYDGSNKYYADSVKGRFTISRDNSKNTLYLQMNSLRAEGTAVYYCAKDFRSFDWLPPDSASYHGMDVWGQGTTVTVSS
VL: SYELTQPPSVSVSPGQTASITCSGDKLGDKYASWYQQKPGQSPVLVIYQDGKRPSGIPERFSGSNFGNKATLTISGTQAMDEADYYCQAWDRNTVVFGGGTKLTVLG
- EC50 (nM), CD33 internalization assay (Protein A-MMAF cell viability, MOLM13) (human CD33 [4]): 1.92 nM
